Assay [1] has as its target ErbB-2/3 heterodimers on MCF7 breast cancer carcinoma cells (UniProt P04626). As to the kind of experiment: cell-based or functional assay.
The target of assay [2] is ErbB-2/3 receptor-Ig fusion (human) (UniProt P04626). As to the kind of experiment: 125I-HRG displacement, ErbB-2/3-Ig on plate.
The target is the same in assay [3]. As to the kind of experiment: phage ELISA, competition with soluble ErbB-2/3-Ig.
Assay [4] deals with ErbB-2/3 receptor-Ig fusion (human, UniProt P04626 23-652; P04626 23-645; P21860 20-643; P04626 23-645). As to the kind of experiment: phage ELISA, competition with soluble ErbB-2/3-Ig.
Description: (§1) Microtiter plates (Nunc Maxisorp™ 96-well plates, Inter Med, Denmark) for phage ELISA were prepared as follows. The wells were precoated overnight with 0.5 μg of rabbit anti-human IgG (Fc gamma fragment-specific) antibodies (Jackson Immunoresearch, West Grove, Pa.) in 100 μL 50 mM NaCO₃ (pH 9.6). The wells were blocked for 30 minutes (min) with 200 μL PBS containing 0.1% bovine serum albumin (BSA) and rinsed with wash buffer (PBS containing 0.05% Tween 20™). The wells were then coated with 0.1 μg ErbB-2/3-Ig in binding buffer (PBS, 0.1% BSA, 0.05% Tween 20™) for 1 h, and washed again.
(§2) Following incubation for 2 h at room temperature, plates were washed extensively and treated with a 1:900 dilution of anti-M13 horseradish peroxidase conjugate (Pharmacia, Piscataway, N.J.) for 20 min. The amount of phage binding was determined by assaying horseradish peroxidase activity using o-phenylenediamine dihydrochloride) substrate solution (Sigma Chemical Company, St. Louis, Mo.).
Assay [5] deals with T1, ErbB-4 receptor-Ig fusion (human, UniProt Q15303 26-651; Q15303 26-640). Description: phage ELISA, competition with soluble ErbB-4-Ig. (In general: ELISA stands for enzyme-linked immunosorbent assay.)
Assay [6] concerns the target T1, ErbB-4 receptor-Ig fusion. As to the kind of experiment: phage ELISA, competition with soluble ErbB-4-Ig; reference.
The target of assay [7] is T2, ErbB-3 receptor-Ig fusion (human, UniProt P21860 20-643; P21860 20-636). As to the kind of experiment: phage ELISA, competition with soluble ErbB-3-Ig.
The target of assay [8] is T2, ErbB-3 receptor-Ig fusion. Description: phage ELISA, competition with soluble ErbB-3-Ig; reference.
Assay [9] has as its target ErbB-3 receptor-Ig fusion (human) (UniProt P21860). As to the kind of experiment: phage ELISA, competition with soluble ErbB-3-Ig.
Assay [10] concerns the target ErbB-4 receptor-Ig fusion (human) (UniProt Q15303). Description: phage ELISA, competition with soluble ErbB-4-Ig.
Assay [11] has as its target ErbB-3 receptor-Ig fusion (human) (UniProt P21860). As to the kind of experiment: 125I-HRG-β1 177-244 displacement, ErbB-3-Ig on plate.
The target in assay [12] is ErbB-4 receptor-Ig fusion (human) (UniProt Q15303). Description: 125I-HRG-β1 177-244 displacement, ErbB-4-Ig on plate.
Assay [13] deals with T2, ErbB-3 receptor-Ig fusion. Description: phage ELISA, competition with soluble ErbB-3-Ig. This is another data set of the same source.
Description: as §1, §2

Broadly, the EC50 is the concentration needed to bring the measured effect to its halfway point. A lower EC50 goes with a more potent agent.

Read-outs that look alike come from different tables or passages of the source. Ends that are not written are not given here.

T1 sequence (Q15303 other isoform, or with tags, fused parts or gaps): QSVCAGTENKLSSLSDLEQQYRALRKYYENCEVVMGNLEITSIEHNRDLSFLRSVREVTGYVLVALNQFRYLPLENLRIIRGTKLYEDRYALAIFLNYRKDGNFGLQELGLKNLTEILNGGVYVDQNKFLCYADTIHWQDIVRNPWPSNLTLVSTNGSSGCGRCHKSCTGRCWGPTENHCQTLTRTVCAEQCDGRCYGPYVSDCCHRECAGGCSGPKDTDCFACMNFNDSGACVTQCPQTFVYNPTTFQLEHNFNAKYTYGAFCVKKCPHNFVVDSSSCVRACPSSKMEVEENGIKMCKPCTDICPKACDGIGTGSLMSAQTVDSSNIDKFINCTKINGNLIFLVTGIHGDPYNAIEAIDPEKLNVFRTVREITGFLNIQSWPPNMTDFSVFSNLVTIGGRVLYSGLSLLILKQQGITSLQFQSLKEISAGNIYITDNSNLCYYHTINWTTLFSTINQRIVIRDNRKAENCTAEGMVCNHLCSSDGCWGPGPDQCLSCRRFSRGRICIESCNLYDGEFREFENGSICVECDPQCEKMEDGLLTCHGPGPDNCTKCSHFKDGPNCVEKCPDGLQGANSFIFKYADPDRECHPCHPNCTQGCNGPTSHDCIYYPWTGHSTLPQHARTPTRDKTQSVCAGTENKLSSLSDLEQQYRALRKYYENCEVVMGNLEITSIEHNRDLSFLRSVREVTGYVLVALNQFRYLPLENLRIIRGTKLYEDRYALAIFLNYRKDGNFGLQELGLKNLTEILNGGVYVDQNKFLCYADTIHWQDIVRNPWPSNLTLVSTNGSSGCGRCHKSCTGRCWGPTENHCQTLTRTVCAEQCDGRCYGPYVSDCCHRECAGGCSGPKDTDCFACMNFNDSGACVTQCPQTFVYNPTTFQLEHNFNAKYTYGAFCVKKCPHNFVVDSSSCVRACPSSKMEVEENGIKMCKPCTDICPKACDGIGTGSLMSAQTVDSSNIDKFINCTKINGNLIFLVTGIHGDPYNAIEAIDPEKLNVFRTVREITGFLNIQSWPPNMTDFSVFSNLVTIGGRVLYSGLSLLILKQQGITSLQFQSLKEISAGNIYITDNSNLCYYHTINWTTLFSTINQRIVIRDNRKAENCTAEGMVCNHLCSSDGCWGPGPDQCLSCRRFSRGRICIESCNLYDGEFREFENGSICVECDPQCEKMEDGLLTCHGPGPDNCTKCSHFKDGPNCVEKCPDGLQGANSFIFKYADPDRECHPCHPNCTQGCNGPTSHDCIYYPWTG
Sequence of ErbB-4 receptor-Ig fusion (human) (Q15303 other isoform, or with tags, fused parts or gaps): as above

B1: soluble wild-type HRG-β1 EGF (HRG8) (ligand, human, UniProt Q02297-6 177-228, looked up)
chain: SHLVKCAEKEKTFCVNGGECFMVKDLSNPSRYLCKCPNEFTGDRCQNYVMAS
modifications: ends and bridges not checked; cysteine pairing not given here
B1: in [1], the KIRA EC50 (ErbB-2 tyrosine phosphorylation on MCF7 cells) was 0.212 nM. The molecule further returned an EC50 in assay [2] of 0.033 nM.

B2: HRG7 (HRG-β1 177-228 fused to pIII 247, displayed on phage) (ligand, human, UniProt Q02297-6 177-228, looked up, not shown: large carriers)
chain: SHLVKCAEKEKTFCVNGGECFMVKDLSNPSRYLCKCPNEFTGDRCQNYVMAS
modifications: not fully specified (C-terminus); ends and bridges not checked
B2 came in with an EC50 in assay [3] of 42 nM.

B3: HRG8 (HRG-β1 177-228 fused via (GGGS)3 to pIII 323, displayed on phage) (ligand, human, not shown: large carriers)
chain: SHLVKCAEKEKTFCVNGGECFMVKDLSNPSRYLCKCPNEFTGDRCQNYVMASGGGSGGGSGGGS
notes: monovalent phage display; also called pHRG8-g3; wild-type HRG-β1 EGF-phage
As for B3, the 50% effective concentration (EC50) was 11 nM in assay [4], 163 nM in assay [5] and 135 nM in assay [7]. Besides, the “EC50 (wt)/EC50 (mut)” value in [6] and in [8] was 1 ratio in each case.

B4: HRG2 (HRG-β1 177-244 fused to pIII 247, displayed on phage) (ligand, human, UniProt Q02297-6 177-244, looked up, not shown: large carriers)
chain: SHLVKCAEKEKTFCVNGGECFMVKDLSNPSRYLCKCPNEFTGDRCQNYVMASFYKHLGIEFMEAEELY
notes: monovalent phage display; also called pHRG2-g3
Consider B4, for which the EC50 in assay [4] came out at 6 nM; in [9], 13 nM; in assay [10], 19 nM.

B5: recombinantly produced HRG-β1 177-244 (ligand, human, UniProt Q02297-6 177-244, looked up)
chain: SHLVKCAEKEKTFCVNGGECFMVKDLSNPSRYLCKCPNEFTGDRCQNYVMASFYKHLGIEFMEAEELY
As to B5, the EC50 in assay [11] was found to be 9 nM; in assay [12], 14.8 nM.

B6: HRG-β1 177-244 F216A displayed on phage (ligand, not shown: large carriers; small tags and cut ends)
chain: SHLVKCAEKEKTFCVNGGECFMVKDLSNPSRYLCKCPNEATGDRCQNYVMASFYKHLGIEFMEAEELY
notes: from pHRG2-g3; monovalent phage display
Molecule B6 registered an EC50 in assay [13] of 500 nM.

(Values after US20030129688A1 (published 2003).)
